Experimental findings from article PMC4931565, “Higher‐order assemblies of oligomeric cargo receptor complexes form the membrane scaffold of the Cvt vesicle” (EMBO Reports, 2016) are described below.

Values joined by “and” are separate entries in the source; they are usually repeats but may differ in a detail not shown here. Equal entries are not always repeated.

B3: Saccharomyces cerevisiae Ams1 (alpha-mannosidase 1), wild type (natural protein, S. cerevisiae, UniProt P22855 1-1083, looked up)
chain: MSSEDIIYDPQFKPVQGIYENRLRQFIDTGGDYHDLNLPKFYDKKRISLDHDHVKVWWYQVSFERGSSPVSPDKRPSWKSIIERDKKGELEFREANINQPFGPSWSTTWFKVKISLPEDWVKSNEQLLFQWDCSNEGIVIDPKTLIPVTAFSGGERTEYVLPKTSDGKHFFYIEAGNNGMFGCGAGSTINPPDDNRFFHLRKADIVWPDLDARALYIDFWMLGDAARELPGDSWQKHQARQLGNAVMNLFDPNDRSSVRKCRELLQREYFDSFLESSKVYEQGESQVLTNVYGIGNCHIDTAWLWPFAETRRKIVRSWSSQCTLMDRFPEYKFVASQAQQFKWLLEDHPEFFNKVLIPKIQQSQFFAVGGTWVENDTNIPSGESLARQFFFGQRFFLKHFGLKSKIFWLPDTFGYSSQMPQLCRLSGIDKFLTQKLSWNNINSFPHSTFNWAGIDGSQLLTHMPPGNTYTADSHFGDVLRTAKQNKTPEYYGSGLMLYGKGDGGGGPTEEMLQKMRRIRSMNNRNGNVIPKLQVGITVDEFYDDILKRTNQGHDLPTWSGELYFEFHRGTYTSQAQTKKLMRLSEIKLHDLEWIAAKTSVLYPDSYKYPSKQINELWENVLLCQFHDVLPGSCIEMVYKYEAVPMLHNVVKECTSLIDKTVQFLQSQSKADLVEMRTLTWSKPEKVSEECSLNGSYTSSVTGYDDYIVLANGKLKVIICKKTGVITSITDETLGVEYLDTEHGRNKLGANQFVIYDDKPLGWQAWDTELYSVNQYKYVTKPKKVQVSCNTKEKCAVEVIFQISEKCKIKSVISLNATAVTDAKLSKVDISTTVENWDARNKFLKVEFPVNIRNDFASYETQFGITKRPTHYNTSWDVAKFEVCHHKFADYSEYSKGVSILNDCKYGFSTHGNLMRLSLLRSPKAPDAHADMGTHEIKYAIYPHRGALSSDTVKLAHEFNYCFKYKLPKDIGMNFDDIISISGDENVILSNIKRGEDDSAVKSNYSLNPRDEQSIVVRVYESLGGESFASLNTTLNLKRIEKVDNLEMKVYKSLTATRDESNHAINRIPIKLRPFEIASFRLYF
notes: alpha-mannosidase 1 (Ams1) of S. cerevisiae, 125-kDa full-length protein (model covers residues up to 1083); Expression from pGAPZ-His6-Ams1; also called His6-Ams1; his-Ams1; source: Pichia pastoris SMD1168, purified

The target of series [1] is Chaetomium thermophilum mApe1 (Chaetomium thermophilum). Kind of series: crystal structure; ct-mApe1, hanging drop, 4 C, 100 mM Hepes pH 6.6, 4 M sodium formate; 2.8 A.
Series [2] shares this target. In words: negative stain EM; purified protein or purified complex, 2% uranyl acetate, droplet technique; particles and class averages.
Series [3] addresses T1, Saccharomyces cerevisiae mApe1 (mature Ape1 lacking the N-terminal propeptide) (S. cerevisiae), P14904.
T1 chain: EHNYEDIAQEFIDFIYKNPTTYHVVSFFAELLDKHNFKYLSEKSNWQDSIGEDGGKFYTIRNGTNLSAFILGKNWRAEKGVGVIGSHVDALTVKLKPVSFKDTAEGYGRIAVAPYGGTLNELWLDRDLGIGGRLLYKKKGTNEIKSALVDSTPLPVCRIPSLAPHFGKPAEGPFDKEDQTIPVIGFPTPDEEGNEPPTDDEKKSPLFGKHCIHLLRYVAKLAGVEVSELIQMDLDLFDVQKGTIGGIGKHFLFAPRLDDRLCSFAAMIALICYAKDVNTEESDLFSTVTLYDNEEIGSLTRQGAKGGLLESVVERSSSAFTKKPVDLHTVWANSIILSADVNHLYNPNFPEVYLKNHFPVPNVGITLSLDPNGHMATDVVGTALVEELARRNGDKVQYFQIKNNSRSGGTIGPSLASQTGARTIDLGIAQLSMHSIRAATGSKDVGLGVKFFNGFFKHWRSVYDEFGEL
The description is as above. Conditions: remark: other sources report otherwise.

The target in series [4] is T1, Saccharomyces cerevisiae mApe1 (mature …). In words: negative stain EM; GraFix-purified sc-mApe1 (10-30% glycerol with 0-0.15% glutaraldehyde gradient, 50 mM Hepes pH 7.5, 150 mM NaCl); 3D reconstruction with tetrahedral symmetry, 24 A. The settings on record: remark: other sources report otherwise.
Series [5] concerns the molecule itself. Kind of series: negative stain EM; purified protein or purified complex, 2% uranyl acetate, droplet technique; particles and class averages.
Series [6] concerns the molecule itself. Kind of series: cryo-EM structure; His6-Ams1 0.4 mg/ml in 50 mM Tris-HCl, 175 mM NaCl, 75 mM imidazole; D2 symmetry, 6.3 A.
Series [7] concerns the target B3. Kind of series: pull-down; purified MBP-Atg19 or MBP (1 uM) mixed with his-Ams1 (1 uM), mApe1 (1 uM) or prApe1 (0.7 uM) overnight at 4 C in 50 mM Tris-HCl pH 7.5, 25 mM NaCl, 5 mM MgCl2, 1 mM DTT, 0.2% NP-40; captured on amylose beads; SDS-PAGE, Coomassie. The settings on record: both partners purified.

Take “Chaetomium thermophilum mApe1 (natural protein)”: the stoichiometry N in series [1] and in series [2] was 12 throughout.

B1: Saccharomyces cerevisiae mApe1 (mature Ape1 lacking the N-terminal propeptide), P14904 46-514 (natural protein)
chain: EHNYEDIAQEFIDFIYKNPTTYHVVSFFAELLDKHNFKYLSEKSNWQDSIGEDGGKFYTIRNGTNLSAFILGKNWRAEKGVGVIGSHVDALTVKLKPVSFKDTAEGYGRIAVAPYGGTLNELWLDRDLGIGGRLLYKKKGTNEIKSALVDSTPLPVCRIPSLAPHFGKPAEGPFDKEDQTIPVIGFPTPDEEGNEPPTDDEKKSPLFGKHCIHLLRYVAKLAGVEVSELIQMDLDLFDVQKGTIGGIGKHFLFAPRLDDRLCSFAAMIALICYAKDVNTEESDLFSTVTLYDNEEIGSLTRQGAKGGLLESVVERSSSAFTKKPVDLHTVWANSIILSADVNHLYNPNFPEVYLKNHFPVPNVGITLSLDPNGHMATDVVGTALVEELARRNGDKVQYFQIKNNSRSGGTIGPSLASQTGARTIDLGIAQLSMHSIRAATGSKDVGLGVKFFNGFFKHWRSVYDEFGEL
Regarding B1, the stoichiometry N in series [3] was 12 and 6; in series [4], 12.

B2: Saccharomyces cerevisiae prApe1 (vacuolar aminopeptidase I with its N-terminal propeptide) (natural protein, S. cerevisiae, UniProt P14904 1-514, looked up)
chain: MEEQREILEQLKKTLQMLTVEPSKNNQIANEEKEKKENENSWCILEHNYEDIAQEFIDFIYKNPTTYHVVSFFAELLDKHNFKYLSEKSNWQDSIGEDGGKFYTIRNGTNLSAFILGKNWRAEKGVGVIGSHVDALTVKLKPVSFKDTAEGYGRIAVAPYGGTLNELWLDRDLGIGGRLLYKKKGTNEIKSALVDSTPLPVCRIPSLAPHFGKPAEGPFDKEDQTIPVIGFPTPDEEGNEPPTDDEKKSPLFGKHCIHLLRYVAKLAGVEVSELIQMDLDLFDVQKGTIGGIGKHFLFAPRLDDRLCSFAAMIALICYAKDVNTEESDLFSTVTLYDNEEIGSLTRQGAKGGLLESVVERSSSAFTKKPVDLHTVWANSIILSADVNHLYNPNFPEVYLKNHFPVPNVGITLSLDPNGHMATDVVGTALVEELARRNGDKVQYFQIKNNSRSGGTIGPSLASQTGARTIDLGIAQLSMHSIRAATGSKDVGLGVKFFNGFFKHWRSVYDEFGEL
notes: vacuolar aminopeptidase I (Ape1) of S. cerevisiae, 55-kDa zymogen including the N-terminal propeptide; only TEV cleavage of MBP is described there; also called sc-prApe1; full-length prApe1; source: Sf21, purified (glutathione beads, 3C cleavage, Superose 6); also co-expressed with MBP-Atg19 in Sf21 and co-purified on amylose beads; not shown: GST, N-terminal, cleaved; copies: 12
On to B2, for which the “stoichiometry N” value in series [5] was 12.

Consider B3, for which the “stoichiometry N” value in series [6] turned out to be 4.

B4: MBP-Atg19 (Saccharomyces cerevisiae Atg19 with N-terminal MBP) (natural protein, S. cerevisiae, UniProt P35193 1-415, looked up)
chain: MNNSKTNQQMNTSMGYPLTVYDECNKFQLIVPTLDANIMLWCIGQLSLLNDSNGCKHLFWQPNDKSNVRILLNNYDYGHLFKYLQCQRKCSVYIGEGTLKKYNLTISTSFDNFLDLTPSEEKESLCREDAHEDPVSPKAGSEEEISPNSTSNVVVSRECLDNFMKQLLKLEESLNKLELEQKVTNKEPNHRISGTIDIPEDRSELVNFFTELKTVKQLEDVFQRYHDYERLSQECDSKTEIASDHSKKETKIEVEPPNERSLQITMNQRDNSLYFQLFNNTNSVLAGNCKLKFTDAGDKPTTQIIDMGPHEIGIKEYKEYRYFPYALDLEAGSTIEIENQYGEVIFLGKYGSSPMINLRPPSRLSAESLQASQEPFYSFQIDTLPELDDSSIISTSISLSYDGDDNEKALTWEEL
notes: autophagy receptor Atg19 of S. cerevisiae, from cDNA; source: Sf21, purified (amylose beads, eluted with maltose); also in Sf21 lysate, co-expressed with prApe1; not shown: MBP, N-terminal, kept
As to B4, the binding result in series [7] was “binds”.

B5: Saccharomyces cerevisiae Ams1 W234E mutant (natural protein, S. cerevisiae, UniProt P22855 1-1083, looked up)
chain: MSSEDIIYDPQFKPVQGIYENRLRQFIDTGGDYHDLNLPKFYDKKRISLDHDHVKVWWYQVSFERGSSPVSPDKRPSWKSIIERDKKGELEFREANINQPFGPSWSTTWFKVKISLPEDWVKSNEQLLFQWDCSNEGIVIDPKTLIPVTAFSGGERTEYVLPKTSDGKHFFYIEAGNNGMFGCGAGSTINPPDDNRFFHLRKADIVWPDLDARALYIDFWMLGDAARELPGDSEQKHQARQLGNAVMNLFDPNDRSSVRKCRELLQREYFDSFLESSKVYEQGESQVLTNVYGIGNCHIDTAWLWPFAETRRKIVRSWSSQCTLMDRFPEYKFVASQAQQFKWLLEDHPEFFNKVLIPKIQQSQFFAVGGTWVENDTNIPSGESLARQFFFGQRFFLKHFGLKSKIFWLPDTFGYSSQMPQLCRLSGIDKFLTQKLSWNNINSFPHSTFNWAGIDGSQLLTHMPPGNTYTADSHFGDVLRTAKQNKTPEYYGSGLMLYGKGDGGGGPTEEMLQKMRRIRSMNNRNGNVIPKLQVGITVDEFYDDILKRTNQGHDLPTWSGELYFEFHRGTYTSQAQTKKLMRLSEIKLHDLEWIAAKTSVLYPDSYKYPSKQINELWENVLLCQFHDVLPGSCIEMVYKYEAVPMLHNVVKECTSLIDKTVQFLQSQSKADLVEMRTLTWSKPEKVSEECSLNGSYTSSVTGYDDYIVLANGKLKVIICKKTGVITSITDETLGVEYLDTEHGRNKLGANQFVIYDDKPLGWQAWDTELYSVNQYKYVTKPKKVQVSCNTKEKCAVEVIFQISEKCKIKSVISLNATAVTDAKLSKVDISTTVENWDARNKFLKVEFPVNIRNDFASYETQFGITKRPTHYNTSWDVAKFEVCHHKFADYSEYSKGVSILNDCKYGFSTHGNLMRLSLLRSPKAPDAHADMGTHEIKYAIYPHRGALSSDTVKLAHEFNYCFKYKLPKDIGMNFDDIISISGDENVILSNIKRGEDDSAVKSNYSLNPRDEQSIVVRVYESLGGESFASLNTTLNLKRIEKVDNLEMKVYKSLTATRDESNHAINRIPIKLRPFEIASFRLYF
notes: alpha-mannosidase 1 (Ams1) of S. cerevisiae with W234E in the N-terminal four-helix bundle; Same construct as m4 (pGAPZ-His6-Ams1) with the point mutation; also called W234E dimers; source: Pichia pastoris SMD1168, purified
Consider B5, for which the “stoichiometry N” value in series [5] came to 2.

What is called stoichiometry N is a count of units in the complex or per binding partner.
